{
  "source": "paper PMC3814370",
  "about": "“Functional assignment of KEOPS/EKC complex subunits in the biosynthesis of the universal t^6A tRNA modification” (Nucleic Acids Research, 2013)",
  "key": {"[1]": {"molecular_target": "Pcc1–Kae1 binary complex from Pyrococcus abyssi (Pyrococcus abyssi) (UniProt Q9V1Z9)", "sequence (Q9V1Z9 whole entry, chain 1 of 2)": "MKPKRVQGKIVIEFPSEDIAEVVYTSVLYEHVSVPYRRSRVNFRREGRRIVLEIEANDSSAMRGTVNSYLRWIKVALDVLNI", "sequence (Q9UXT7 whole entry, chain 2 of 2, further chain)": "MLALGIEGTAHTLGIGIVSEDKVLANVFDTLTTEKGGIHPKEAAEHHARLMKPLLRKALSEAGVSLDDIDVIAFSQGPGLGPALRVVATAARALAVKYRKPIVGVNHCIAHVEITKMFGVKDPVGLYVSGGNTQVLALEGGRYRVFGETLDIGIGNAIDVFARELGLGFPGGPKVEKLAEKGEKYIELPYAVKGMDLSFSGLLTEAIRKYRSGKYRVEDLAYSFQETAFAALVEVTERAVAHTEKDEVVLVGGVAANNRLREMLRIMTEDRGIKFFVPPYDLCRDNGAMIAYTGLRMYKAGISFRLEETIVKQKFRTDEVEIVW"}, "[2]": {"test_system": "Kae1-Bud32 (Pyrococcus abyssi)", "assay": "EMSA", "conditions": "apparent Kd; retarded bands from 50 nM; EMSA: 10 nM 32P-tRNA, 20 µl binding buffer BB (composition not in material), 15 min at 4 C (Figure 7 legend: room temperature), 10% native gel in 1X TGE at 4 C"}},
  "data": [
    {"substance": "Kae1–Bud32 binary complex from Pyrococcus abyssi (from UniProt Q9UXT7 1-324; Q9UYB9 1-220)", "values": [
      {"measurement": "t^6A synthesis (14C-L-threonine incorporated into tRNA) by a mix of the two binary complexes, relative to PaKEOPS", "setting": "[1]", "value": 30, "unit": "%"}
    ]},
    {"substance": "Kae1–Bud32–Cgi121 ternary complex from Pyrococcus abyssi (from UniProt Q9UXT7 1-324; Q9UYB9 1-220; Q9UZ62 1-171)", "values": [
      {"measurement": "t^6A synthesis (14C-L-threonine incorporated into tRNA) after adding Pcc1–Kae1 to the ternary complex, relative to PaKEOPS", "setting": "[1]", "value": 36, "unit": "%"}
    ]},
    {"substance": "substrate tRNA (probably Ec_tRNALys)", "values": [
      {"measurement": "Kd", "setting": "[2]", "value": 2000, "unit": "nM"}
    ]}
  ]
}
